This data set can be described thus: soluble on expression in E. coli; label from the status in PepcDB or PDB records.
On to “MGSDKIHHHHHHMNEPHGERISVEIPGLERILRGGFLPGRSYLVSGGPGTGKTTLGLQYLASSADGNGLLISLGESERNLRADALRIGLSLDGTSVIDLSPGADAEPEAAYTLLEPWEAEGVDIRSRIGALLPDGPPERVFIDALSQLRQLMPDAYQFRKQVMGLLEYLNSAGTTVLYTAEQGSSADTDLRYLGDGILELEHRENRRILRVLKFRGSGFSEGEHTLRLGDHGMQVFERLMPGEHRRTYVAEELPCGIGELDRLSGGGITRGTVTIISGPTGVGKTSLGLQYMHEAARRGERSVVYTFEESIGTLRTRCEAIGIPVSDMMAKGSLSIDEVEPLHYSPDEFAWRVRTEVEQQGARMVMLDSLAGFRQSVRGDDITAHAHALCHYLSNMGVTVLLVNEQSAIAGEELRPSEDDINYLADTIVLLRYMELDGGLRKAIGILKKRTGDFEKTLREFQITREGLRVGAPLYGLQGILQGIPSKIATLDATE”, for which the “soluble on expression in E. coli” value is recorded as “not soluble”. The result for “GMQKLTRINDFNEVLNSRKSVKVFDENYKIPREEMDEIITKATKAPSSVNMQPWRIAVVQSDEMKEKVKESFGFNSRQLTTSSAMLIIFGDLQNYEKAEQIYGDAVEQQLMTEDIKAQLLDWILPYYKNLSREGMKDIVNIDSSLMAMQLMLTAKAHGYDTNPIGGFDKENIADIIGYDSDRYVPVLAIAIGKKAQDAHDSVRLPIDDVREFL” reads “soluble”. Regarding “SNAKVILYARVSSNTQKDDLANQVKYLEEQVKEYDLVITDIGSGLNMKRKGFLKLLRMILNNEVSRVITAYPDRLVRFGFEILEEVCKAHNCEIVVLNQEDKTPEEELVEDLATILVSFSGKLHGMRSQKYEKVKKCAEELKN”, the “soluble on expression in E. coli” value is given as “soluble”. Then “MKNDVISPEFDENGRPLRRIRSFVRRQGRLTKGQEHALENYWPVMGVEFSEAPVDFATLFGREAPVTLEIGFGMGASLVAMAKARPEQNFLGIEVHSPGVGACLASANEEGVENLRVMCHDAVEVLHKMIPDNSLSMVQLFFPDPWHKARHNKRRIVQVPFAELVLSKLKLGGVFHMATDWEAYAEHMLEVMSSIDGYKNLSESNDYVPRPESRPVTKFEQRGHRLGHGVWDLMFERVK”, with “not soluble”; and “MGHHHHHHSHVTNLNLATGIINRSSASAPPTLRPIISPSGPTWSTQSDPQAPENHSSSPGSSFI”, with “not soluble”; and “GLGEKKEGHFSALPSLPVGSHAKVSSPQPRGPRYAEGTFISDYSIAMDKIHQQDFVNWLLAQKGKKNDWKHNITQREARALELASQANRKEEEAVEPQSSPAKNPSDEDLLRDLLIQELLACLLDQTNLCRLRSR”, with “soluble”.

Turning to “MFEFEQLPNEMQLEVLKRTEFRTIQSMKTVSKRVQHFIQLYQRYMLPIPIRQMFVTPEKISFTLANSNEINTINHDDMDKYLRGAKVDLLWLEMNGSEDEPIEFLQKVIQKTNFTRIDCLKLGSSKVECDVTKLENCMASLVCAELIVDWRFRVPEDFFNELHVEKLTRLTIGNQESRNFYHPLSGDHFRKFRGDWLEIGQNRLRSSDISTFLKNWKLGSISWIEMYNIVISFPIPELLILLKNESCQKTPTTWKVSRDLDEGKEELEIGFFKSTNFSKQPSLVIRQLKILEYLW”, the “soluble on expression in E. coli” value was “not soluble”. Then “PRGSHMIILAFDIFGTVLDTSTVIQEFRNKQLEYTWLLTIMGKYVEFEEITKITLRYILKVRGEESKFDEELNKWKNLKAYEDTKYLKEISEIAEVYALSNGSINEVKQHLERNGLLRYFKGIFSAESVKEYKPSPKVYKYFLDSIGAKEAFLVSSNAFDVIGAKNAGMRSIFVNRKNTIVDPIGGKPDVIVNDFKELYEWILRYK”, with “soluble”; and “MTESEVRKLLRQMKELDSQTAFRDFYNMTYDRLFRIAYYYVKQEEWSQEIVLDIFLKLWKQRDTLLDVKNIEDYCFILVKNASLNYLEKESKYTTIHSDSLPEPQEQSYSPEESLISEELFAIYVKALDRLPERCREIFIRIREEKQSYAQVAEELDISIKTVDAQLQKAVSRLKEMISSSG”, with “not soluble”; and “MLSTSASLYLNELINEMRQLSETPIDCKNARMLLSKEISKVFDELYRHGQGFIDNGYGSDYNKNDFYSPHSANSGYSASPFPSRPSLPNHALSTSFYHNSFMTPIRNGRMRSPDQDLGDWSREKINDTQHVLQTKVYIPEPPVSIDGKKVKCNYIGRILGPSGMSARMIENQYDVTLLIRGAGSVRNKAMDERVRKRNEHLEEPLHVLLIARHNDKTKCEEILNKAAEKIESLLTPIHDEYKMDQLVSYAKMNGTYQERPKRKSQLDEQSHSNYWAPH”, with “not soluble”. Then “FDKVKVSTNFTYTLNQNKIVSLANGAINPETGEAIEMEYYSKGTLGTSGGPTLRLYENGSMGDIYINQRLRQSPNGYIWKDPSNGSLAIENTEYRKVGSILPKYYLGWNGSVAWKGWNLGFAFTGRFGGLVVSDTQAMIDKYGVSESSAVARQAGGVWVGDSKVDAEEYYSKVTTAVGTYYTYSATNIRLSELSLSYQLPKTWFKNHVNMTLGLTGKNLWMIYCKAPYDPESTSSVTSNFYQGVDYFQQPSLRSLGFNVKLTF”, with “not soluble”. The result for “MTDNLNLGAIDLGTDDEFIARHIGPRAADTQAMLQRLGYDSLDTLIGNVIPDSIKGSSVLDLPAGMGEAEALASLKAIAARNRALRSFIGQGYYNCHTPAPILRNLLENPAWYTAYTPYQPEISQGRLEALLNFQTLVSDLSGLPIANASMLDEATAAAEAMTFCKRLSKNRTSQAFFASRHCHPQTLDVLRTRAEPLGIEVVVGDESTIEDFSAYFGALLQYPTCDGEIVDYRELVSRFHAVDALVAVAADLLALTLLTPPGEFGADVAIGSAQRFGVPLGFGGPHAAYFATRDAFKRDMPGRLVGVSIDRHGKPAYRLAMQTREQHIRREKATSNICTAQVLLANIASMFAVYHGPQGLLRIARRTHRLTAILAAGLERLGVAVEQKHFFDTLSLATGARTAAIHAKARAAGINLREIDAGRLGLSLDETVRQTDVETLWGLLAEEGQALPDFAALAASSGDRLPVELLRQSAILSHPIFNRHHSETELMRYLRKLADKDLALDRTMIPLGSCTMKLNAASEMIPVTWAEFGNLHPFAPAEQSEGYRQLTDELEAMLCSATGYDAVSLQPNAGSQGEYAGLLAIRAYHQSRGDSQRDICLIPSSAHGTNPATASMVGMRVVVVACDARGNVDVEDLRNKASEHKERLAALMITYPSTHGVFEEAIREICAIVHDCGGQVYIDGANMNAMVGLCAPGKFGGDVSHLNLHKTFCIPHGGGGPGVGPIGVRAHLAPFLPGHARGERKEGAVSAAPYGSASILPITWMYIRMMGGEGLKRASEMAILNANYIAHRLEEHYPVLYAGGNGLVAHECILDLRPLKDSSGISVDDVAKRLMDFGFHAPTMSFPVAGTLMIEPTESESKAELDRFCDAMIRIREEIRAVERGELDKEDNPLKNAPHTAAELLGEWNHAYSREQAAYPLASLVEAKYWPPVGRVDNVYGDRNLTCSCPPIEAYS” reads “not soluble”; that for “LNDAWFNSSVVRAMLTHTRVFGRYEGPEEKLFRTANYTEINCIDNYAPTEMIEVKVTDRSGAVVEGADIRFCIYNYSEFYPVVTKQSDAQGLASLRVGKGDMLIWAAKDGLFGYALSKADDRKPLAIALDNFEAQPEWADFKIVPPAGDPIPTTCSPQQISTNDARLLREDSIRAAYEATFATAEQSAALAAELGVDAPALTGILQTSRGNHADIEGFLRSVEAGKARQRAMDLLQTVSPKDLTDTPESLLKVIFRDMAEPAPEAASGEAYRHHLRYVASPRIYTEMLSSFVPTLRSILTAKEQEAMRQDPAELVRWVSSNIRLDTLYNTQYTTITPVGVWRAKRADLRSMGIFFVAMARTLGIPARYDEVTGKIQYSKELMPLRWSDVNLRESKTALKEQGSLALDYSPTALAPNPNYYSRFTVAELQPSGIIRTLYYDENEPTDLKTLFDRPKEMNAGHYFLVTGTRMASGSVLCRMRKFTVEAGKTARQPLELLHDSTDIQVIGSINAEQLYHDLSHAEDRSLLSTTGRGYFAMAILGAGQEPTNHALKDLEKVKADFEQWGRKLILLFPDADGHKRYKPADFPSLPETAVFGLDIQGRNAAMIREAANLPDATNLPIVIIADSFGRVVFVRQGYTIGLGEQMMQVIHRL”, “not soluble”; that for “MRALSSLLLTLLLAGPAFAEPSAELQEPLAGWRYSGLLDRTEQDRVAYPTPPIDRGIQRNRTLIEGQLKAIGHLRQPHSLSVNGNPLNLYTDEQGRFARPYAFGAGSNSVEVRSSEGKPLKRVQFYEANLNKTPPRIRVVLGWDDPKAELDMHIITPDGQHAFFGHPGLTNGGGLDPDGVDGPGPEMFTMTAPLRGTYLIYVNYWGNFGSGGYNFDEGSNQNEVITSQINLILNENTVDEKRETFIVPMRAIGDLLLVKSFNYLEHHHHHH”, “soluble”.

As for “MATIKIKFRTSSVKTKEGVLFYQIIHARVTRQINTGYKIFPSEWDKHLACIILPDNNDIRRRFLAQLTSRIAEDMHRLKNIISKLEHSGNPFTSGKIIELFRIPPINKYSFLSFAQDLIIQLKQIGKERTAESYASAYNSFKRFMDNNGDVLLEDVNSNLMIKYEIYLKNCGVCPNSCSYYMRNLRAIYNRAVEKELTQQQYPFKYVYTGIDKTVKRAVSLKTIRQIQNLDLSTNPLMDYARDIFMFSFYTRGMSFIDMAYLKKKDLQNGVLSYRRHKTDQQLFIKWEKPMQKIVDKYNTIESSYLLPIIKNNGKDPRREYKNASHLINRKLKVIGQMLEIPVTLTTYVARHAWANIAKSKNISISVISEAMGHDSENTTRIYLASLDASIVDKANSIILKSL”, the “soluble on expression in E. coli” value is “not soluble”. The result for “MVTMALDSVTIEVIRNSAIYISEEMGVVLRDTAFSPNIKDRLDHSCAVLAPDGSLVAQAEHIPVHLGSMSVGVVNLVKYIEDLGMDLGVGDVVVTNDPYISGTHLNDLMAIKPVYAGDFHIAYVANKAHHVDVGGLVPGSIGGGAKELREEGIVIEPVKVVEAGSVRWDIVRMLEANVRTPRYFRGDLMAQIASLNVGEARLRELAGRYGGSALVEAWESILGYTERYTREKIGEVAALASGVYRARDYMETSKGELLEIVATLTIDKGRLTVDYTGTSKQVDEPINAVYGVTVAATLFALKSTLDPEMPMNQGFFRIVEIKAPEGTLVNPLKPAPVGGGNVETSQRIADVVFRALAEALPERVPAASCGTMSNVMVGGRGWAFYETNACGSGARPCCDGVDGVHTNMTNTLNTPIEVIEREYPILFNAYELRPDSGGPGMYRGGLGVVRAFTALEDNVTITIFAERGLTRPWGLSGGRPGRSFEAVITRAAGEVERLMSKHTAKLNRGDTIAIYTPGGGGYGDPCKRDRSLIERDLREGRITMESAVKDYCYDS” reads “not soluble”; that for “DDGEPYALCVVATDITDQKQRERELARLTDEYAAVFENTNDAIALVDIEEPADDPTFRYVRTNEAYERQTGFDTESLTGQTPVEAAGPDIGRRIADHYKQCVSAGEPITFEERDLHPTGVWETQVTPIAADG”, “not soluble”; that for “MSLRKGNEIELLVEGIEFPAKGFGFVDGLKVYAKNTFPGQKVFGRVTKKRKEYAEIRVSEVREKASYEEDQKCPHFGVCGGCSSQTIPYEKQLELKVEQVKDLFKEAEVPTGEFLGIETSPIQWEYRNKMEYTFGDEEKGGELTLGMHMKGKSFGIVNVDKCVLVDEDFRNILDTTVKYFREKGLPFYKIMPRTGYLRYLVVRKSVKTEEILVNLVTTTQIDFDLTEFTELIKGLNLKGKLKSIIHTESDALSEAVIPEKVNILYGDDFITENLLGLNFKISPFSFFQTNSLGAEKLYSIVRDFMGAADNKVVFDLYCGTGTIGQIAAGKASKVIGIELIEEAAMAANENAKLNGLNNCNFIAGDVAEVIKTVKDKPDIIILDPPRSGVHPKALDYVIKFNAPQIIYVSCNPKTLVTDLKVLEAKGYEIEKTLLMDMFPNTPHVETVVKLNKKEGHHHHHH”, “soluble”.

Source of the values: the DeepSol protein solubility set.
